Values of other authors, collected in patent US8349318B2, “Use of specifically engineered enzymes to enhance the efficacy of prodrugs” (The Board of Trustees of the University of Illinois, priority 2008, dated 2013).

B1: dNK: Drosophila melanogaster nucleoside kinase, SEQ ID NO:3 (protein)
chain: MAEAASCARKGTKYAEGTQPFTVLIEGNIGSGKTTYLNHFEKYKNDICLLTEPVEKWRNVNGVNLLELMYKDPKKWAMPFQSYVTLTMLQSHTAPTNKKLKIMERSIFSARYCFVENMRRNGSLEQGMYNTLEEWYKFIEESIHVQADLIIYLRTSPEVAYERIRQRARSEESCVPLKYLQELHELHEDWLIHQRRPQSCKVLVLDADLNLENIGTEYQRSESSIFDAISSNQQPSPVLVSPSKRQRVAR
modifications: Drosophila melanogaster
kcat for dC phosphorylation (Knecht et al., 2002): 16.5 s⁻¹ | efficiency for dC phosphorylation, higher than dCK (compared with dCK): 2,500 fold
